Experimental data published in US20250059282A1 (University of Texas, published 2025).

T1: Human PD-L2-HIS (human, UniProt Q9BQ51 20-220)
T1 construct: also called His-tagged human PD-L2; not shown: His tag
T1 sequence: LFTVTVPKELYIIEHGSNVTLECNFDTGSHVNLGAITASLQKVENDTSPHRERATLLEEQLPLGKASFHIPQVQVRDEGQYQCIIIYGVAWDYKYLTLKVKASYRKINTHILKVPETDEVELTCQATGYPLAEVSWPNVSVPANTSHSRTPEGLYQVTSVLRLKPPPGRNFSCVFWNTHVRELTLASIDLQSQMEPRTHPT

T2: Mouse PD-L2-Fc (mouse, UniProt Q9WUL5 20-219, limits assumed)
T2 construct: also called murine PD-L2; not shown: Fc
T2 sequence (looked up): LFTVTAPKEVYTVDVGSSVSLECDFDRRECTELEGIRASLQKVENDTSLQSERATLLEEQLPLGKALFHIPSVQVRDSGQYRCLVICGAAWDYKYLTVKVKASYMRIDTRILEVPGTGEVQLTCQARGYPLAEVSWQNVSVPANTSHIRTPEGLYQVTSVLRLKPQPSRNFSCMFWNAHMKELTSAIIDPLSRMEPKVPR

T3: Cyno PD-L2-Fc (cynomolgus, UniProt A0A2K5U5Z4 20-220)
T3 construct: also called cynomolgus PD-L2; not shown: Fc
T3 sequence: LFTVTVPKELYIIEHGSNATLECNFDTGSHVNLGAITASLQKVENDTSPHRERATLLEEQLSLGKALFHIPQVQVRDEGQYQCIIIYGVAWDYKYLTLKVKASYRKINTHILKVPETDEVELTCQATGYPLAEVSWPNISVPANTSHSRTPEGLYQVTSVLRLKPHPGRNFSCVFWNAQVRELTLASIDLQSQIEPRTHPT

T4: Human PD-L2-Fc (human, UniProt Q9BQ51 20-220)
T4 construct: also called dimeric PD-L2; PD-L2 (dimeric ligand); not shown: human IgG1 Fc constant region
T4 sequence: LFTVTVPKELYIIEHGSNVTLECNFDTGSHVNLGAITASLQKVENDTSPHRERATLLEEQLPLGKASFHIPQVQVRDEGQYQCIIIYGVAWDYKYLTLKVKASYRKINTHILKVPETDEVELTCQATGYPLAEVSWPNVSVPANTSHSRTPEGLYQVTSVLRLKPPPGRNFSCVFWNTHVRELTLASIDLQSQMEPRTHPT


Tests used:
Human PD-L1-HIS = target: T5, Human PD-L1-HIS (human, UniProt Q9NZQ7 19-238); assay: ForteBio, IgG, monovalent
T5 construct: also called HIS-tagged monovalent PD-L1; His-tagged human PD-L1; not shown: His tag

Human PD-L2-HIS = target: T1, Human PD-L2-HIS; assay: ForteBio, IgG, monovalent
Mouse PD-L1-Fc = target: T6, Mouse PD-L1-Fc (mouse, UniProt Q9EP73 19-239, limits assumed); assay: ForteBio, IgG, avid
T6 construct: also called murine PD-L1; not shown: Fc

Mouse PD-L2-Fc = target: T2, Mouse PD-L2-Fc; assay: ForteBio, IgG, avid
Cyno PD-L1-Fc = target: T7, Cyno PD-L1-Fc (cynomolgus, UniProt G7PSE7 19-238); assay: ForteBio, IgG, avid
T7 construct: also called cynomolgus PD-L1

Cyno PD-L2-Fc = target: T3, Cyno PD-L2-Fc; assay: ForteBio, IgG, avid
Human PD-L2-Fc = target: T4, Human PD-L2-Fc; assay: ForteBio Octet, Fab, monovalent
Method: ForteBio KD measurements—ForteBio affinity measurements were performed on an Octet® RED384 generally as previously described (see, e.g., Estep et al., 2013). Briefly, ForteBio affinity measurements were performed by loading IgGs on-line onto AHQ sensors. Sensors were equilibrated off-line in assay buffer for 30 min and then monitored on-line for 60 seconds for baseline establishment. Sensors with loaded IgGs were exposed to 100 nM antigen for 3 minutes, and afterwards were transferred to assay buffer for 3 min for off-rate measurement. For monovalent affinity assessment Fabs were used instead of IgGs. For this assessment the […] Fc fusion antigen was loaded on-line onto the AHQ sensors. Sensors were equilibrated off-line in assay buffer for 30 min and then monitored on-line for 60 seconds for baseline establishment. Sensors with loaded antigen were exposed to 100 nM Fab for 3 minutes, and afterwards they were transferred to assay buffer for 3 min for off-rate measurement. All kinetics were analyzed using the 1:1 binding model.

T7 sequence (G7PSE7 entry or part of it limits assumed): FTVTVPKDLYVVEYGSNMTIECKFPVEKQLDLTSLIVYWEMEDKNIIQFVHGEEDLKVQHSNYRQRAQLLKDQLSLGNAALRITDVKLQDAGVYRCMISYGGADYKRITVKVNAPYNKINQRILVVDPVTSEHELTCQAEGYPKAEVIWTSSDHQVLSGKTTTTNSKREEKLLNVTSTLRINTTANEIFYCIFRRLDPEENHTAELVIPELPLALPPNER
T6 sequence (Q9EP73 19-239 limits assumed): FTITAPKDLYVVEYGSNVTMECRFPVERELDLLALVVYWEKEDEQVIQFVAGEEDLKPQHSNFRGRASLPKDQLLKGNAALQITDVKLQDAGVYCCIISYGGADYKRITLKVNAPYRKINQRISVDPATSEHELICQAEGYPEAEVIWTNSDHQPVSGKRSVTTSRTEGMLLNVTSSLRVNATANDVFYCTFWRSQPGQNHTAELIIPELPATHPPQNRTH
T5 sequence (Q9NZQ7 19-238 limits assumed): as the sequence (G7PSE7 entry or part of it limits assumed) above, with T33A, S34A, N62S, Q68R, R82Q, L173F, A185T, I192T, L215H counted along it

| Binder | Kd (Human PD-L1-HIS) | Kd (Human PD-L2-HIS) | Kd (Mouse PD-L1-Fc) | Kd (Mouse PD-L2-Fc) | Kd (Cyno PD-L1-Fc) | Kd (Cyno PD-L2-Fc) | Kd (Human PD-L2-Fc) |
| --- | --- | --- | --- | --- | --- | --- | --- |
| BiPDL3-13 Fab (Fab, V domains shown, Fab made by papain digestion of the IgG) VH: QVQLQQWGAGLLKPSETLSLTCAVYGGSLSGYPWSWIRQPPGKGLEWIGETDVSGWTDYNPSLKSRVTISVDTSKNQFSLKLSSVTAADTAVYYCARDGRRMGTPSFDIWGQGTMVTVSS VL: DIQLTQSPSSVSASVGDRVTITCRASQGISSWLAWYQQKPGKAPKLLIYAASSLQSGVPSRFSGSGSGTDFTLTISSLQPEDFATYYCQQYVYFPPTFGGGTKVEIK |  |  |  |  |  |  | 16 nM |
| BiPDL3-44 (antibody, V domains shown, IgG; also called ADI-37475; 37475) VH: QVQLQQWGAGLLKPSETLSLTCAVYGGSLSGYPWSWIRQPPGKGLEWIGETDVSGWTDYNPSLKSRVTISVDTSKNQFSLKLSSVTAADTAVYYCARDGRRMGTPSFDIWGQGTMVTVSS VL: DIQMTQSPSSVSASVGDRVTITCRASQGISTFLAWYQQKPGKAPKLLIYAASALHSGVPSRFSGSGSGTDFTLTISSLQPEDFATYYCQRAVYFPPTFGGGTKVEIK | 30.2 nM | 1.45 nM | 42 nM | 0.552 nM | 0.455 nM | 0.603 nM |  |

The remaining binders from weak to strong by Kd (Human PD-L1-HIS), led by results:

| Kd (Human PD-L1-HIS) | Kd (Human PD-L2-HIS) | Kd (Mouse PD-L1-Fc) | Kd (Mouse PD-L2-Fc) | Kd (Cyno PD-L1-Fc) | Kd (Cyno PD-L2-Fc) | Kd (Human PD-L2-Fc) | Binder |
| --- | --- | --- | --- | --- | --- | --- | --- |
| 17.8 nM | 0.844 nM | 31.6 nM | 0.484 nM | 0.431 nM | 0.677 nM |  | BiPDL3-34 (antibody, V domains shown, IgG; also called ADI-37468; 37468) VH: QVQLQQWGAGLLKPSETLSLTCAVYGGSLSGYPWSWIRQPPGKGLEWIGETDVSGWTDYNPSLKSRVTISVDTSKNQFSLKLSSVTAADTAVYYCARDGRRMGTPSFDIWGQGTMVTVSS VL: DIQMTQSPSSVSASVGDRVTITCRASQDISSFLAWYQQKPGKAPKLLIYAASSLQDGVPSRFSGSGSGTDFTLTISSLQPEDFATYYCQKSVYFPPTFGGGTKVEIK |
| 13.4 nM | 0.868 nM | 2.65 nM | 0.553 nM | 0.396 nM | 0.605 nM |  | BiPDL3-24 (antibody, V domains shown, IgG; also called ADI-37465; 37465) VH: QVQLQQWGAGLLKPSETLSLTCAVYGGSLSGYPWSWIRQPPGKGLEWIGETDVSGWTDYNPSLKSRVTISVDTSKNQFSLKLSSVTAADTAVYYCARDGRRMGTPSFDIWGQGTMVTVSS VL: DIQMTQSPSSVSASVGDRVTITCRASQGISNFLAWYQQKPGKAPKLLIYAASSLQSGVPSRFSGSGSGTDFTLTISSLQPEDFATYYCQKAVYFPPTFGGGTKVEIK |
